Experimental findings from patent US20050019833A1, “Proteins capable of binding to environmental hormones and process for producing the same” (priority 2002, published 2005) are described below.

Where a chain is given by its changes, count along the chain named.

Test [1] in a line: indirect competitive ELISA, nonylphenoxyacetic acid standard solution. The following applies: FIG. 5; cross-reactivity (%)=[IC50 of NP10EO/IC50 of test compound]x100. In kind it is binding. Here is the method: (§1) A nonylphenoldecaethoxylate (NPLOEO) standard solution was used in (A), a nonylphenoxyacetic acid (NPLEC) standard solution was used in (B), and a nonylphenol (NP) standard solution was used in (C).
(§2) Moreover, a nonylphenoldecaethoxylate (NPLOEO) standard solution was used in (A) and (B), a nonylphenoxyacetic acid (NPLEC) standard solution was used in (C) and (D) and a nonylphenol (NP) standard solution was used in (E) and (F).
(§3) A conjugate (5 μg/mL) of hapten and bovine serum albumin (BSA) (100 μL/each well) was added to a 96-well microtiter plate and stood at 4° C. overnight. After removing the liquid from the well, 300 μL of Block Ace (purchased from Dainippon Pharmaceutical Co., Ltd.) 4-fold diluted with distillated water was added to each well and stood at 4° C. overnight. After removing the liquid from the well, a standard solution (50 μL) of nonylphenol decaethoxylate stepwise diluted with phosphate buffer (10 mM sodium phosphate (purchased from Nacalai Tesque, Inc.), 150 mM NaCl, pH 7.2) was added to each well. […] The mixture was incubated at 25° C. for 1 hr and each well was washed 4 times with a phosphate buffer. Then, 100 μL of mouse anti-HSV tagged antibody (purchased from Amersham Pharmacia Biotech), diluted with a phosphate buffer to 0.1 μg/mL, was added to each well and the mixture was incubated at 25° C. for 1 hr. […] The absorbance at wavelength of 450 nm was measured.
On the technique in general: An ELISA detects its analyte on a solid surface through an enzyme-linked reagent.

Test [2] in a line: indirect competitive ELISA, nonylphenol standard solution. In kind it is binding. The following applies: FIG. 5; cross-reactivity (%)=[IC50 of NP10EO/IC50 of test compound]x100. How it is done:
as §1, §2, §3

B1: anti-alkylphenol monoclonal antibody: monoclonal antibody (IgG2b, kappa) produced by mouse hybridoma AP-14 (FERM BP-6633) (antibody, V domains shown)
VH: QVQLQQSAAELARPGASVKMSCKASGYRFTRYTMHWVKQRPGQGLEWIGNINPSSGDTEYNQKFKDKTTLTADKSSTTAYMQLSSLTSEDSAVYYCATPIFYYGSRYVRYEMDYWGQGTSVTVSS
VL: DIVMTQAAFSNPVTLGTSTSISCRSTKSLLHSNGITYLYWYLQKPGQSPQLLIYQMSNLASGVPDRFSSSGSGTDFTLRISRVEAEDVGVYYCAQNLELPYTFGGGTKLEIKR
modifications: Mouse
On to B1, for which the “cross-reactivity with NP1EC” value in test [1] is given as “shows cross-reactivity”. In test [2], the “cross-reactivity with NP” value is “shows cross-reactivity”.

B2: anti-alkylphenolethoxylate monoclonal antibody: monoclonal antibody (IgG1, kappa) produced by mouse hybridoma MOF3-139 (FERM BP-6059) (antibody, V domains shown)
VH: QVQLQQSGAELMKPGASVKISCKVTGYTFRSYWIEWVKQRPGHGLEWIGEILVGSGSTKYNEKFKGKATITAQTSSNTVYMQLSSLTSEDSAVYYCARPFFGSRYDYSDFWGQGTTLTVSS
VL: B1 VL with T17S, T19A, T26S, S32R, L51V
modifications: Mouse
Regarding B2, the “cross-reactivity with NP1EC” value in test [1] is on record as “hardly shows cross-reactivity”. Also, in test [2], the “cross-reactivity with NP” value is “hardly shows cross-reactivity”.
